{"source": "the DeepSol protein solubility set"}
{"assay": "soluble on expression in E. coli; label from the status in PepcDB or PDB records"}
{"sequence": "MGSDKIHHHHHHALGDQTLRKGQSHPDVKELQEALKKKGFFNYHTSTGYFGSITEDAVREFQMKHGLQVDGIAGPQTLNALLSQMNGNNGGQQTSSSAPNSTSNSTILRFGSSGQAVRDLQEKLKAKGYYNHSITGQYGRITTEAVREFQRANRLTVDGIAGPQTLAALTNQAPAASAPQYNAPVQQTTVLRQGSRGDAVRDLQRSLKDLGYYKSSIDGIFGAGTTTAVREFQRKMGLTVDGVAGPQTLNALHVNPTPNTSNGQSSSSGGNTASSGNRGATITNIVANASELIGTPYVWGGTTPRGFDCSGFVQYVFAQQGVSIPRTVAQMWNAGTSVSQPSVGDIVFFDTTGGPSHNGIYIGNNQFIHSGSSTGVTIASMNNSYWASRYLGAKRLY", "soluble on expression in E. coli": "not soluble"}
{"sequence": "MGSDKIHHHHHHAQNQDCAFFFPNQEGEQITRNCYTADGKLTNILVYRVDQAYEYPSGMEVVANYTFADAAGKTLNSGQMVARCSDGNFSMSMGDVATFPTALNMMNADVYMMGDLMNYPDAFSNPMNPGDDDEFDDGTLRLYQKGNKNNRAEISVFDREFVTTETVNTPAGAFYCTKVKYEMNIWTPKETIKGYGYEWYAPNIGIVRSEQYNNKKELQSYSVLERIKK", "soluble on expression in E. coli": "not soluble"}
{"sequence": "MGSDKIHHHHHHAQQLNVQGDLVSSYVWRGMYQTGASIQPTLGFSVGNFSLTAWGSTDFDGTSASAGAAAKEIDLTAAYTLGRSGLTVSVADLWWAGQGARKYFNFKSHETAHHFEAGVAYTVQSETFPLSVAWYTMFAGQDKNAEGGQNYSSYVEFNYPFRVRMVDLNVTCGMVPYAAPQYNCDGFAVTNVALKGTTQIRFTDKFALPVFAQAVWNPRMEDAHLVFGITLKP", "soluble on expression in E. coli": "not soluble"}
{"sequence": "MGSDKIHHHHHHAQTWENVHFNVDWQMNVPLNSNFADKFSGWGMNFEGKYDLTPYWAIGAFLNFHTNHRYVDRRTIPLTPTASLTTDQQQSAFQLPFGISVSYKLPDNRYVKPYFGVKSGAMYSQNSIYNNLVQWYERPWGFYVSPELGMDIHPVPYQRLGFHVAVYYSYATNKTDILTYSEDGRNSMGVRVGVCF", "soluble on expression in E. coli": "not soluble"}
{"sequence": "MGSDKIHHHHHHAQYTNIQTWGQKLYYNGSDYPGTFLKLKVAVANPRISGTGGKVVFYDSESSQYNYIEVKGVYQSSDARLKTNITPLNSGLGTILGLKPVSYNWKSETSQLRSAEAVPSKAFGFLAQEVAEVMPEIVTLSSTGDSLVDYTAVIPVLVQAVKELDATIQQLELQLDEKANLSDLQNNKNLTSKSLLSNAVMNQNTPNPFNSTTNISFTIPTSARSAFISICNLQGTQVKKFDIATRGEGSIMVSFSDLGVAGMYMYSLVVDGQLISTKRMLLVQ", "soluble on expression in E. coli": "not soluble"}
{"sequence": "MGSDKIHHHHHHASPGPGEIANTQARHIATFFPGRMTGSPAEMLSADYLRQQFTQMGYQSDIRTFNSRFIYTTKDNRKNWHNVTGSTVIAAHEGRVPQQIIIMAHLDTYAPQSDADVDANLGGLTLQGMDDNAAGLGVMLELAARLKDIPTHYGIRFIATSGEEEGKLGAENLLKRMSDAEKKNTLLVINLDNLIVGDKLYFNSGKNTPEAVRTLTRDRALAIARRYGIAANTNPGRNPSYPKGTGCCNDAEVFDKAGISVLSVEATNWNLGKKDGYQQRVKNASFPNGNSWHDVRLDNQQHIDKALPGRIERRSRDVVRIMLPLVKELAKAEKTS", "soluble on expression in E. coli": "not soluble"}
{"sequence": "MGSDKIHHHHHHAVVSCDSILGEEEVDCSVEYRVKFKYDYNMKYADAFSREVGTVTLYAFDDNGKLVYQKTEEGDVLGEEGYTMKVDLEPGDYHLVTWAGLNDEASFSVPLVTAGESSLDELQCRMDRLYSRAADGTAVVNSKLSALWHGEVTKQSFSRAASSQVVTVPLVKNTNTIRIILQQMDGVTVEVDKFEFTITDDNGLMNYDNKLLEDETLTYYPYYRMQGGTDMGIRADGDAEDSNISVAIAQITVGRLVVENNPRLTITNKETGEPVLSIPLVKYLLLTEAEGHEMTNQEYLDRQDEYNMTFFLDESMKWINTSIIINDWVVRFNELDM", "soluble on expression in E. coli": "not soluble"}
{"sequence": "MGSDKIHHHHHHCAASWVHPLTGAHLLLFGTEQGIYSFDTNCMPDGNLSKIHHRRCSWMFVYADRLTAIQGNTPYVYRHDLVALTQKNLTLKMSKNLNKIPEKYVPKRLAITVRMPETRGALQCTVKRGQGAQANSLFLCCAVRKTVHLFQWYNPMNQFVLVRSEPIREDIRFPIRPFALINSRTSDFPELCIGVGQMSGSNEYQFNMINFCSSTNNSELSGDLNSSYGSLADDEMLEVGSMHQIDRDTLCFSFRNKVVLTDLQGFERPKPSIFTFNFHIEYLHVVDGTILAFHANGVQGRDLKSNLNTQDLCDVSRLYRVIGDDRVIILRSQP", "soluble on expression in E. coli": "not soluble"}
{"sequence": "MGSDKIHHHHHHCELDRDPEGKDFQQPYTSFVQTKQNRDGLYALLRNTENPRMHFYQELQSDMYCTTITDGNSLAPFVNWDLGILNDHGRADEDEVSGIAGYYFVYNRLNQQANAFVNNTEAALQNQVYKNSTEIANAKSFLAEGKVLQALAIWRLMDRFSFHESVTEVNSGAKDLGVILLKEYNPGYIGPRATKAQCYDYILSRLSEAIEVLPENRESVLYVSRDYAYALRARIYLALGEYGKAAADAKMVVDKYPLIGAADASEFENIYRSDANNPEIIFRGFASATLGSFTATTLNGAAPAGKDIKYNPSAVPFQWVVDLYENEDFRKSVYIAKVVKKDKGYLVNKFLEDKAYRDVQDKPNLKVGARYFSVAEVYLILVESALQTGDTPTAEKYLKALSKARGAEVSVVNMEALQAERTRELIGEGSRLRDMVRWSIPNNHDAFETQPGLEGFANTTPLKAQAPVGFYAYTWEFPQRDRQTNPQLIKNWPI", "soluble on expression in E. coli": "not soluble"}
{"sequence": "MGSDKIHHHHHHDEIDTLVSKSDNAITFGTYVGKQTKALDKSAFAKDDKFGVSAYYGDGTFEANFMSNETISTTDGSTWTYTNTKYWPEGNPVSFVAYYPNLTTAPTITDGATAIPFTVKNDATEQVDFMWSTVKAATKDDKNGTAINGITNTTTDATSVPFVFQHGLSKISFKAKLGEASYSGVTIKVKSIKINGVKNKGTFTIPADLTAGTWATEDAATNDYTVSETNGKEIASTTADSIGESLLMIPQDMKGKTIEIAYDLVYTNPAQTISNTKAIVLDDKSNWVMNQQYTYTLTISLETVQLTASVGQFGANIDL", "soluble on expression in E. coli": "not soluble"}
{"sequence": "MGSDKIHHHHHHDFLDRHPQGQFTEDDNPGALAEGKVFNIYTMMRNYNITAGIPAFAIEYFRSEDSEKGSTASDGADQAAMYDDFQYNASNGLIKAYWSQNYAVIYQCNDVIETIEKGNLTEENDLRNKGEALFFRAYCYFNLVRAFGEVPLVTFKVNDASEANVPKTTAEEIYKQIDSDLTQAEGLLPRQWQSAYLGRLTWGSARALHARTYMMRNDWQNMYTAATDVMNSGQYNLNTPYDVIFTDEGENSSESVFELQCASTAALPASDKIGSQFCEVQGVRGSGQWDLGWGWHMGTELMGEAFEPGDPRKDATLLYFRRSDTDPITPENTNKPYGESPVSQADGTYFNKKAYTNPALREEFTRHGFWVNIRIIRYGDVVLMAAESANELGKTGEASNYLEMVRARARGNNPDILPKVTSLDQTVLRDAIRHERRVELGLESGRFYDLVRWGIASQVLHAAGKTGYQPKNALLPLPQDEIDKSKGVLVQNPDY", "soluble on expression in E. coli": "not soluble"}
{"sequence": "MGSDKIHHHHHHEKKDKKENDTSAVQATETDCTAAELVTTEPEGEITISEMIDQRIKEEGKIMIYRMCIAESNTPVEITEDLKVKIISYDGDKLKGYKNPDDFLMETRLGDIIHNKVDYSTYNIGTYGGNWKRHRYVSGGDEKYVEEEGYVQREITTDDSGNNAQLETLYSYSKGTLYSRDAGSKEWNQTEKEDSLDIVSFGTFERIKLDGKTYMTFCVRDNLNLIEYDIIPDNKFTENKTVVYDTPGTEKTTVNTVDYLKEYQAVPKEELEQMIVFPGSKKAESSQAAD", "soluble on expression in E. coli": "not soluble"}
{"sequence": "MGSDKIHHHHHHENLYFQGMARTAEEQANHDLVIEMYNKVLIAMDSSAVDRYIAPGYVQHSSLAEPSVEALKGFLDRVRAESPDARQTIHRSFVDGDHVITHTHVERWPGDAGLAVVDIFRVEGGMIVEHWDVIQDVPANPVNPNSMF", "soluble on expression in E. coli": "soluble"}
{"sequence": "MGSDKIHHHHHHEVPIGFDTDELSFDMSLVLLTGDMQTKASDPNYTYATTEELTIQNCHVAVFDKDGKRIYFKNFYSKDLGEMKTIGNLSGYELQLEGVRTFGKEDKKVSVLVVANANNANNSPFDNLTTYDGVDNSYTAKTIAKGPVTASLLVKIGKSETTLKYNQDNAPVTVSLIQLSAKIEYTGVYKKENGELLEGFSLTKVAGLNASSKITIFNTSAVENGAFSDLAYPTTKPVTFYTYEISDAFKEVILSVQSGVEPKEYPFPANKFIKGNYYRIKGLKSSTEIEWVLENVEDKEVTLDPFE", "soluble on expression in E. coli": "not soluble"}
